Measured values published in doi:10.64898/2025.12.11.693838 (bioRxiv, 2025).

B1: Staphylococcal atypical 2-Cys peroxiredoxin / thiol peroxidase, wild type (WT-SaTpx) (enzyme, UniProt Q2FXL3 1-164, looked up)
chain: MTEITFKGGPIHLKGQQINEGDFAPDFTVLDNDLNQVTLADYAGKKKLISVVPSIDTGVCDQQTRKFNSDASKEEGIVLTISADLPFAQKRWCASAGLDNVITLSDHRDLSFGENYGVVMEELRLLARAVFVLDADNKVVYKEIVSEGTDFPDFDAALAAYKNI
B2: N-terminal β-flap deletion mutant of SaTpx (NΔ15-SaTpx) (domain or fragment, UniProt Q2FXL3 16-164, looked up)
chain: QQINEGDFAPDFTVLDNDLNQVTLADYAGKKKLISVVPSIDTGVCDQQTRKFNSDASKEEGIVLTISADLPFAQKRWCASAGLDNVITLSDHRDLSFGENYGVVMEELRLLARAVFVLDADNKVVYKEIVSEGTDFPDFDAALAAYKNI

Target: the molecule itself
Assay: crystal structure

| Protein | stoichiometry N |
| --- | --- |
| B1 | 2 |
| B2 | 2 |
